Test results from publication PMC12865031, “Mechanistic insights into PCBP1-driven unfolding of selected i-motif DNA at G1/S checkpoint”.

Assays:
[1] = target: T1, PCBP1 KH1+2;PCBP1 KH3 (Homo sapiens?;Homo sapiens?, UniProt Q15365;Q15365 1-169;269-356, |); experiment: MST; pH 6.4; affinity and selectivity for i-motif restored; MST: 20 mM MES pH 6.4, phosphate pH 7.0 or Tris-Cl pH 8.0, 100 mM NaCl, 25 C; EMSA: 20 mM Bis-Tris pH 6.4 or Tris-HCl pH 8.0, 100 mM NaCl, 0.25 mg/mL BSA, 25 C; NMR/CD: 20 mM MES pH 6.4, 100 mM NaCl; footprinting 20 mM MES pH 6.4, 50 mM NaCl; details: protein: recombinant;recombinant, tags: His tag (pET-His1a), removed by TEV;His tag (pET-His1a), copies: 1;1, label: 5'-Cy5 (EMSA, MST), intramolecular i-motif at pH 6.4, unfolded at pH 7.0 and 8.0
[2] = target: T2, PCBP1 KH1+2 (UniProt Q15365 1-169); experiment: MST; pH 6.4; no structural selectivity; MST: 20 mM MES pH 6.4, phosphate pH 7.0 or Tris-Cl pH 8.0, 100 mM NaCl, 25 C; EMSA: 20 mM Bis-Tris pH 6.4 or Tris-HCl pH 8.0, 100 mM NaCl, 0.25 mg/mL BSA, 25 C; NMR/CD: 20 mM MES pH 6.4, 100 mM NaCl; footprinting 20 mM MES pH 6.4, 50 mM NaCl; details: protein: recombinant; tags: His tag (pET-His1a), removed by TEV; label: 5'-Cy5 (EMSA, MST); intramolecular i-motif at pH 6.4; unfolded at pH 7.0 and 8.0
[3] = target: T3, PCBP1 (wild type) (UniProt Q15365 1-356); experiment: EMSA; pH 6.4, i-motif; MST: 20 mM MES pH 6.4, phosphate pH 7.0 or Tris-Cl pH 8.0, 100 mM NaCl, 25 C; EMSA: 20 mM Bis-Tris pH 6.4 or Tris-HCl pH 8.0, 100 mM NaCl, 0.25 mg/mL BSA, 25 C; NMR/CD: 20 mM MES pH 6.4, 100 mM NaCl; footprinting 20 mM MES pH 6.4, 50 mM NaCl; details: protein: recombinant; tags: His tag (pET-His1a), removed by TEV; label: 5'-Cy5 (EMSA, MST); intramolecular i-motif at pH 6.4; unfolded at pH 7.0 and 8.0
[4] = target: T3, PCBP1 (wild type); experiment: MST; pH 6.4, i-motif; stronger than pH 8.0; MST: 20 mM MES pH 6.4, phosphate pH 7.0 or Tris-Cl pH 8.0, 100 mM NaCl, 25 C; EMSA: 20 mM Bis-Tris pH 6.4 or Tris-HCl pH 8.0, 100 mM NaCl, 0.25 mg/mL BSA, 25 C; NMR/CD: 20 mM MES pH 6.4, 100 mM NaCl; footprinting 20 mM MES pH 6.4, 50 mM NaCl; details: protein: recombinant; tags: His tag (pET-His1a), removed by TEV; label: 5'-Cy5 (MST); i-motif at pH 6.4 and 7.0; unfolded at pH 8.0
[5] = target: T3, PCBP1 (wild type); experiment: EMSA; pH 6.4, i-motif; two shifted bands; MST: 20 mM MES pH 6.4, phosphate pH 7.0 or Tris-Cl pH 8.0, 100 mM NaCl, 25 C; EMSA: 20 mM Bis-Tris pH 6.4 or Tris-HCl pH 8.0, 100 mM NaCl, 0.25 mg/mL BSA, 25 C; NMR/CD: 20 mM MES pH 6.4, 100 mM NaCl; footprinting 20 mM MES pH 6.4, 50 mM NaCl; details: protein: recombinant; tags: His tag (pET-His1a), removed by TEV; label: 5'-Cy5 (EMSA, MST); intramolecular i-motif with co-existing hairpin at pH 6.4; unfolded at pH 7.0 and 8.0
[6] = target: T3, PCBP1 (wild type); experiment: CD titration; stronger blue-shift than wild-type BCL2; MST: 20 mM MES pH 6.4, phosphate pH 7.0 or Tris-Cl pH 8.0, 100 mM NaCl, 25 C; EMSA: 20 mM Bis-Tris pH 6.4 or Tris-HCl pH 8.0, 100 mM NaCl, 0.25 mg/mL BSA, 25 C; NMR/CD: 20 mM MES pH 6.4, 100 mM NaCl; footprinting 20 mM MES pH 6.4, 50 mM NaCl; details: protein: recombinant; tags: His tag (pET-His1a), removed by TEV; i-motif without hairpin
[7] = target: T3, PCBP1 (wild type); experiment: EMSA; pH 6.4; MST: 20 mM MES pH 6.4, phosphate pH 7.0 or Tris-Cl pH 8.0, 100 mM NaCl, 25 C; EMSA: 20 mM Bis-Tris pH 6.4 or Tris-HCl pH 8.0, 100 mM NaCl, 0.25 mg/mL BSA, 25 C; NMR/CD: 20 mM MES pH 6.4, 100 mM NaCl; footprinting 20 mM MES pH 6.4, 50 mM NaCl; details: protein: recombinant; tags: His tag (pET-His1a), removed by TEV; label: 5'-Cy5 (EMSA); unfolded
[8] = target: T3, PCBP1 (wild type); experiment: bromine footprinting; pH 6.4; enhanced cleavage across all Cs; MST: 20 mM MES pH 6.4, phosphate pH 7.0 or Tris-Cl pH 8.0, 100 mM NaCl, 25 C; EMSA: 20 mM Bis-Tris pH 6.4 or Tris-HCl pH 8.0, 100 mM NaCl, 0.25 mg/mL BSA, 25 C; NMR/CD: 20 mM MES pH 6.4, 100 mM NaCl; footprinting 20 mM MES pH 6.4, 50 mM NaCl; details: protein: recombinant; tags: His tag (pET-His1a), removed by TEV; label: 3'-Cy5; intramolecular i-motif at pH 6.4
[9] = target: T1, PCBP1 KH1+2;PCBP1 KH3; experiment: bromine footprinting; pH 6.4; cleavage enhanced across all Cs; MST: 20 mM MES pH 6.4, phosphate pH 7.0 or Tris-Cl pH 8.0, 100 mM NaCl, 25 C; EMSA: 20 mM Bis-Tris pH 6.4 or Tris-HCl pH 8.0, 100 mM NaCl, 0.25 mg/mL BSA, 25 C; NMR/CD: 20 mM MES pH 6.4, 100 mM NaCl; footprinting 20 mM MES pH 6.4, 50 mM NaCl; details: protein: recombinant;recombinant, tags: His tag (pET-His1a), removed by TEV;His tag (pET-His1a), copies: 1;1, label: 3'-Cy5, intramolecular i-motif at pH 6.4
[10] = target: T2, PCBP1 KH1+2; experiment: bromine footprinting; pH 6.4; increased cleavage at C3-C5 and C12-C14; MST: 20 mM MES pH 6.4, phosphate pH 7.0 or Tris-Cl pH 8.0, 100 mM NaCl, 25 C; EMSA: 20 mM Bis-Tris pH 6.4 or Tris-HCl pH 8.0, 100 mM NaCl, 0.25 mg/mL BSA, 25 C; NMR/CD: 20 mM MES pH 6.4, 100 mM NaCl; footprinting 20 mM MES pH 6.4, 50 mM NaCl; details: protein: recombinant; tags: His tag (pET-His1a), removed by TEV; label: 3'-Cy5; intramolecular i-motif at pH 6.4

T3 sequence (Q15365 whole entry): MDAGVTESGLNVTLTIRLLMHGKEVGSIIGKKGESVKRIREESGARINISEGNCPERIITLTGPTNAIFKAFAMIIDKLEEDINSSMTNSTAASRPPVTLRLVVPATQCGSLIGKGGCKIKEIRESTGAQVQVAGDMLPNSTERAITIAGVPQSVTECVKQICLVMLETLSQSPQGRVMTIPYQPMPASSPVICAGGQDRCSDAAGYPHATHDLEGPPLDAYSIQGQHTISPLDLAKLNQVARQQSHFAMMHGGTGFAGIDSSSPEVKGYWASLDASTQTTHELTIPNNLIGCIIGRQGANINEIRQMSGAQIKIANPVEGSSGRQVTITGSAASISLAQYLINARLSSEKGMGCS
T2 sequence (Q15365 1-169): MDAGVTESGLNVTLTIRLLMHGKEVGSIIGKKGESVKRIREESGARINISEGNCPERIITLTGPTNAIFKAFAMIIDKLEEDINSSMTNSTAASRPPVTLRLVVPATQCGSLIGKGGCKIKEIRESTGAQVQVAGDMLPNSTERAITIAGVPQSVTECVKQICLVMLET
T1 sequence (Q15365 1-169, chain 1 of 2): as the sequence (Q15365 1-169) above
T1 sequence (Q15365 269-356, chain 2 of 2): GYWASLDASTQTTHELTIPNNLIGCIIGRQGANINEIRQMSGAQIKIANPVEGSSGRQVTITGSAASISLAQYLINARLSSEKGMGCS

AATCCCACCCCTCCCATCCCTT (structured_DNA) [cMYC-iMfs]
binding result [1]: binds
binding result [2]: binds
binding result [3]: binds

TGTCCCCACACCCCTGTCCCCACACCCCTGT (structured_DNA) [ILPR-iMfs]
binding result [3]: binds

CCCCCCCTTTCCCCCCCTTTCCCCCCCTTTCCCCCCC (structured_DNA) [C7T3-iMfs]
binding result [4]: binds

CCCTAACCCTAACCCTAACCCT (structured_DNA) [hTeloC-iMfs]
binding result [3]: binds

CAGCCCCGCTCCCGCCCCCTTCCTCCCGCGCCCGCCCCT (structured_DNA) [BCL2-iMfs]
binding result [5]: binds

CAGCCCCGCTCCCGCCCCCTTCCTCCCTCTCCCGCCCCT (structured_DNA) [BCL2-G10TG12T]
binding result [6]: binds

TACACTCACACTCACACTCACACTCAA (ssDNA) [mutC]
binding result [7]: no binding

CATCCCCTCTCCCTCCCCCTTCCTCCCTCTCCCTCCCCT (structured_DNA) [BCL2-Gall>T]
binding result [6]: binds

AATCCCACCCCTCCCATCCCTTTTT (structured_DNA) [cMYC-iMfs-Br]
binding result [8]: binds
binding result [9]: binds
binding result [10]: binds
